These results are taken from patent publication US20220298260A1 (MYTHIC THERAPEUTICS, published 2022).

This assay addresses T1, FOLR1 (R&D Systems, Cat #5646-FR) (human, UniProt P15328 25-233).
T1 construct: Bought soluble protein; also called Folate Receptor 1
Nature of the assay: BLI, IgG on anti-human Fc sensor, 50 nM FOLR1. For orientation: Biolayer interferometry detects binding as a change in optical thickness at a sensor tip.

T1 sequence (P15328 25-233 limits assumed): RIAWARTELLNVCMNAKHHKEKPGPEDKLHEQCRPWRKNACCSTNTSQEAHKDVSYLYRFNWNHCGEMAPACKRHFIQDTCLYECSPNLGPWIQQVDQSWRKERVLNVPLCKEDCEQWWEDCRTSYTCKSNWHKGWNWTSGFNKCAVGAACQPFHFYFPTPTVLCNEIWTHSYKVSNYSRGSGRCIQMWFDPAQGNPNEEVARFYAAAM

B1: MYT2199 (antibody, V domains shown)
VH: EVQLVESGGGVVQPGRSLRLSCSASGFTFSGYGLSWVRQAPGKGLEWVAMISSHGSYTYYADSVKGRFAISRDNAKNTLFLQMDSLRPEDTGVYFCARHGDDPAWFAYWGQGTPVTVSS
VL: DIQLTQSPSSLSASVGDRVTITCSVSSSISSNNLHWYQQKPGKAPKPWIYGTSNLASGVPSRFSGSGSGTDYTFTISSLQPEDIATYYCQQWSSYPYMYTFGQGTKVEIK
notes: IgG
Regarding B1, the binding result is recorded as “binds”.

B2: MYT2220 (antibody, V domains shown)
VH: EVQLVESGGGVVQPGRSLRLSCSASGFTFSGYGLSWVRQAPGKGLEWVAMISSGGSYTYYADSVKGRFAISRDNAKNTLFLQMDSLRPEDTGVYFCARHGDDPAHFAYWGQGTPVTVSS
VL: DIQLTQSPSSLSASVGDRVTITCSVSSSISSNNLHWYQQKPGKAPKPWIYGTSNLASGVPSRFSGSGSGTDYTFTISSLQPEDIATYYCQQWSSYPYMYTFGQGTKVEIK
notes: IgG
For the molecule B2, the binding result was “binds”.

B3: MYT2207 (antibody, V domains shown)
VH: EVQLVESGGGVVQPGRSLRLSCSASGFTFSGYGLSWVRQAPGKGLEWVAMISSGGSYTYYAHSVKGRFAISRDNAKNTLFLQMDSLRPEDTGVYFCARHGDDPAWFAYWGQGTPVTVSS
VL: DIQLTQSPSSLSASVGDRVTITCSVSSSISSNNLHWYQQKPGKAPKPWIYGTSNLASGVPSRFSGSGSGTDYTFTISSLQPEDIATYYCQQWSSYPYMYTFGQGTKVEIK
notes: IgG
Take B3: the binding result is “binds”.

B4: MYT2210 (antibody, V domains shown)
VH: EVQLVESGGGVVQPGRSLRLSCSASGFTFSGYGLSWVRQAPGKGLEWVAMISSGGSYTYYADSVHGRFAISRDNAKNTLFLQMDSLRPEDTGVYFCARHGDDPAWFAYWGQGTPVTVSS
VL: DIQLTQSPSSLSASVGDRVTITCSVSSSISSNNLHWYQQKPGKAPKPWIYGTSNLASGVPSRFSGSGSGTDYTFTISSLQPEDIATYYCQQWSSYPYMYTFGQGTKVEIK
notes: IgG
As to B4, the binding result was “binds”.

B5: MYT2201 (antibody, V domains shown)
VH: EVQLVESGGGVVQPGRSLRLSCSASGFTFSGYGLSWVRQAPGKGLEWVAMISSGGHYTYYADSVKGRFAISRDNAKNTLFLQMDSLRPEDTGVYFCARHGDDPAWFAYWGQGTPVTVSS
VL: DIQLTQSPSSLSASVGDRVTITCSVSSSISSNNLHWYQQKPGKAPKPWIYGTSNLASGVPSRFSGSGSGTDYTFTISSLQPEDIATYYCQQWSSYPYMYTFGQGTKVEIK
notes: IgG
Take B5: the binding result is reported as “binds”.

B6: MYT2222 (antibody, V domains shown)
VH: EVQLVESGGGVVQPGRSLRLSCSASGFTFSGYGLSWVRQAPGKGLEWVAMISSGGSYTYYADSVKGRFAISRDNAKNTLFLQMDSLRPEDTGVYFCARHGDDPAWFHYWGQGTPVTVSS
VL: DIQLTQSPSSLSASVGDRVTITCSVSSSISSNNLHWYQQKPGKAPKPWIYGTSNLASGVPSRFSGSGSGTDYTFTISSLQPEDIATYYCQQWSSYPYMYTFGQGTKVEIK
notes: IgG
Turning to B6, the binding result is reported as “binds”.

B7: MYT2202 (antibody, V domains shown)
VH: EVQLVESGGGVVQPGRSLRLSCSASGFTFSGYGLSWVRQAPGKGLEWVAMISSGGSHTYYADSVKGRFAISRDNAKNTLFLQMDSLRPEDTGVYFCARHGDDPAWFAYWGQGTPVTVSS
VL: DIQLTQSPSSLSASVGDRVTITCSVSSSISSNNLHWYQQKPGKAPKPWIYGTSNLASGVPSRFSGSGSGTDYTFTISSLQPEDIATYYCQQWSSYPYMYTFGQGTKVEIK
notes: IgG
Take B7: the binding result is “binds”.

B8: MYT4521 (antibody, V domains shown)
VH: EVQLVESGGGVVQPGRSLRLSCSASGFTFSGYGLSWVRQAPGKGLEWVAMISSGGSYTYYADSVKGRFAISRDNAKNTLFLQMDSLRPEDTGVYFCARHGDDPAWFAYWGQGTPVTVSS
VL: DIQLTQSPSSLSASVGDRVTITCSVSSHISSNNLHWYQQKPGKAPKPWIYGTSNLASGVPSRFSGSGSGTDYTFTISSLQPEDIATYYCQQWSSYPYMYTFGQGTKVEIK
notes: IgG
B8: the binding result was “binds”.

B9: MYT2205 (antibody, V domains shown)
VH: EVQLVESGGGVVQPGRSLRLSCSASGFTFSGYGLSWVRQAPGKGLEWVAMISSGGSYTYHADSVKGRFAISRDNAKNTLFLQMDSLRPEDTGVYFCARHGDDPAWFAYWGQGTPVTVSS
VL: DIQLTQSPSSLSASVGDRVTITCSVSSSISSNNLHWYQQKPGKAPKPWIYGTSNLASGVPSRFSGSGSGTDYTFTISSLQPEDIATYYCQQWSSYPYMYTFGQGTKVEIK
notes: IgG
Regarding B9, the binding result is given as “binds”.

B10: MYT2208 (antibody, V domains shown)
VH: EVQLVESGGGVVQPGRSLRLSCSASGFTFSGYGLSWVRQAPGKGLEWVAMISSGGSYTYYADHVKGRFAISRDNAKNTLFLQMDSLRPEDTGVYFCARHGDDPAWFAYWGQGTPVTVSS
VL: DIQLTQSPSSLSASVGDRVTITCSVSSSISSNNLHWYQQKPGKAPKPWIYGTSNLASGVPSRFSGSGSGTDYTFTISSLQPEDIATYYCQQWSSYPYMYTFGQGTKVEIK
notes: IgG
As to B10, the binding result is on record as “binds”.

B11: MYT4522 (antibody, V domains shown)
VH: EVQLVESGGGVVQPGRSLRLSCSASGFTFSGYGLSWVRQAPGKGLEWVAMISSGGSYTYYADSVKGRFAISRDNAKNTLFLQMDSLRPEDTGVYFCARHGDDPAWFAYWGQGTPVTVSS
VL: DIQLTQSPSSLSASVGDRVTITCSVSSSHSSNNLHWYQQKPGKAPKPWIYGTSNLASGVPSRFSGSGSGTDYTFTISSLQPEDIATYYCQQWSSYPYMYTFGQGTKVEIK
notes: IgG
As for B11, the binding result is given as “binds”.

B12: MYT2203 (antibody, V domains shown)
VH: EVQLVESGGGVVQPGRSLRLSCSASGFTFSGYGLSWVRQAPGKGLEWVAMISSGGSYHYYADSVKGRFAISRDNAKNTLFLQMDSLRPEDTGVYFCARHGDDPAWFAYWGQGTPVTVSS
VL: DIQLTQSPSSLSASVGDRVTITCSVSSSISSNNLHWYQQKPGKAPKPWIYGTSNLASGVPSRFSGSGSGTDYTFTISSLQPEDIATYYCQQWSSYPYMYTFGQGTKVEIK
notes: IgG
On to B12, for which the binding result is given as “binds”.

B13: MYT2211 (antibody, V domains shown)
VH: EVQLVESGGGVVQPGRSLRLSCSASGFTFSGYGLSWVRQAPGKGLEWVAMISSGGSYTYYADSVKHRFAISRDNAKNTLFLQMDSLRPEDTGVYFCARHGDDPAWFAYWGQGTPVTVSS
VL: DIQLTQSPSSLSASVGDRVTITCSVSSSISSNNLHWYQQKPGKAPKPWIYGTSNLASGVPSRFSGSGSGTDYTFTISSLQPEDIATYYCQQWSSYPYMYTFGQGTKVEIK
notes: IgG
For the molecule B13, the binding result is recorded as “binds”.

B14: MYT2206 (antibody, V domains shown)
VH: EVQLVESGGGVVQPGRSLRLSCSASGFTFSGYGLSWVRQAPGKGLEWVAMISSGGSYTYYHDSVKGRFAISRDNAKNTLFLQMDSLRPEDTGVYFCARHGDDPAWFAYWGQGTPVTVSS
VL: DIQLTQSPSSLSASVGDRVTITCSVSSSISSNNLHWYQQKPGKAPKPWIYGTSNLASGVPSRFSGSGSGTDYTFTISSLQPEDIATYYCQQWSSYPYMYTFGQGTKVEIK
notes: IgG
With B14, the binding result is “binds”.

B15: MYT2223 (antibody, V domains shown)
VH: EVQLVESGGGVVQPGRSLRLSCSASGFTFSGYGLSWVRQAPGKGLEWVAMISSGGSYTYYADSVKGRFAISRDNAKNTLFLQMDSLRPEDTGVYFCARHGDDPAWFAHWGQGTPVTVSS
VL: DIQLTQSPSSLSASVGDRVTITCSVSSSISSNNLHWYQQKPGKAPKPWIYGTSNLASGVPSRFSGSGSGTDYTFTISSLQPEDIATYYCQQWSSYPYMYTFGQGTKVEIK
notes: IgG
For B15, the binding result is “binds”.

B16: MYT2216 (antibody, V domains shown)
VH: EVQLVESGGGVVQPGRSLRLSCSASGFTFSGYGLSWVRQAPGKGLEWVAMISSGGSYTYYADSVKGRFAISRDNAKNTLFLQMDSLRPEDTGVYFCARHGHDPAWFAYWGQGTPVTVSS
VL: DIQLTQSPSSLSASVGDRVTITCSVSSSISSNNLHWYQQKPGKAPKPWIYGTSNLASGVPSRFSGSGSGTDYTFTISSLQPEDIATYYCQQWSSYPYMYTFGQGTKVEIK
notes: IgG
Consider B16, for which the binding result was “binds”.

B17: MYT4520 (antibody, V domains shown)
VH: EVQLVESGGGVVQPGRSLRLSCSASGFTFSGYGLSWVRQAPGKGLEWVAMISSGGSYTYYADSVKGRFAISRDNAKNTLFLQMDSLRPEDTGVYFCARHGDDPAWFAYWGQGTPVTVSS
VL: DIQLTQSPSSLSASVGDRVTITCSVSHSISSNNLHWYQQKPGKAPKPWIYGTSNLASGVPSRFSGSGSGTDYTFTISSLQPEDIATYYCQQWSSYPYMYTFGQGTKVEIK
notes: IgG
As for B17, the binding result is listed as “binds”.

B18: MYT2218 (antibody, V domains shown)
VH: EVQLVESGGGVVQPGRSLRLSCSASGFTFSGYGLSWVRQAPGKGLEWVAMISSGGSYTYYADSVKGRFAISRDNAKNTLFLQMDSLRPEDTGVYFCARHGDDHAWFAYWGQGTPVTVSS
VL: DIQLTQSPSSLSASVGDRVTITCSVSSSISSNNLHWYQQKPGKAPKPWIYGTSNLASGVPSRFSGSGSGTDYTFTISSLQPEDIATYYCQQWSSYPYMYTFGQGTKVEIK
notes: IgG
With B18, the binding result is given as “binds”.

B19: MYT2204 (antibody, V domains shown)
VH: EVQLVESGGGVVQPGRSLRLSCSASGFTFSGYGLSWVRQAPGKGLEWVAMISSGGSYTHYADSVKGRFAISRDNAKNTLFLQMDSLRPEDTGVYFCARHGDDPAWFAYWGQGTPVTVSS
VL: DIQLTQSPSSLSASVGDRVTITCSVSSSISSNNLHWYQQKPGKAPKPWIYGTSNLASGVPSRFSGSGSGTDYTFTISSLQPEDIATYYCQQWSSYPYMYTFGQGTKVEIK
notes: IgG
In the case of B19, the binding result was “binds”.

B20: MYT2209 (antibody, V domains shown)
VH: EVQLVESGGGVVQPGRSLRLSCSASGFTFSGYGLSWVRQAPGKGLEWVAMISSGGSYTYYADSHKGRFAISRDNAKNTLFLQMDSLRPEDTGVYFCARHGDDPAWFAYWGQGTPVTVSS
VL: DIQLTQSPSSLSASVGDRVTITCSVSSSISSNNLHWYQQKPGKAPKPWIYGTSNLASGVPSRFSGSGSGTDYTFTISSLQPEDIATYYCQQWSSYPYMYTFGQGTKVEIK
notes: IgG
In the case of B20, the binding result was “binds”.

B21: MYT2214 (antibody, V domains shown)
VH: EVQLVESGGGVVQPGRSLRLSCSASGFTFSGYGLSWVRQAPGKGLEWVAMISSGGSYTYYADSVKGRFAISRDNAKNTLFLQMDSLRPEDTGVYFCARAGDDPAWFAYWGQGTPVTVSS
VL: DIQLTQSPSSLSASVGDRVTITCSVSSSISSNNLHWYQQKPGKAPKPWIYGTSNLASGVPSRFSGSGSGTDYTFTISSLQPEDIATYYCQQWSSYPYMYTFGQGTKVEIK
notes: IgG
Consider B21, for which the binding result is on record as “binds”.
